Assay [1] has as its target Mannose 6-phosphate (M6P) receptor purified from bovine liver, coupled to NHS-Sepharose 4B FF resin (bovine). Kind of assay: M6P receptor affinity column, 0-1 mM then 5 mM M6P elution; GBA activity in fractions (FIG. 1A).
For assay [2] the target is unchanged. Kind of assay: M6P receptor affinity column, 0-1 mM then 5 mM M6P elution; GBA activity in fractions (FIG. 1B).

Chain of Mannose 6-phosphate (M6P) receptor purified from bovine liver, coupled to NHS-Sepharose 4B FF resin (bovine) (P08169 45-2499): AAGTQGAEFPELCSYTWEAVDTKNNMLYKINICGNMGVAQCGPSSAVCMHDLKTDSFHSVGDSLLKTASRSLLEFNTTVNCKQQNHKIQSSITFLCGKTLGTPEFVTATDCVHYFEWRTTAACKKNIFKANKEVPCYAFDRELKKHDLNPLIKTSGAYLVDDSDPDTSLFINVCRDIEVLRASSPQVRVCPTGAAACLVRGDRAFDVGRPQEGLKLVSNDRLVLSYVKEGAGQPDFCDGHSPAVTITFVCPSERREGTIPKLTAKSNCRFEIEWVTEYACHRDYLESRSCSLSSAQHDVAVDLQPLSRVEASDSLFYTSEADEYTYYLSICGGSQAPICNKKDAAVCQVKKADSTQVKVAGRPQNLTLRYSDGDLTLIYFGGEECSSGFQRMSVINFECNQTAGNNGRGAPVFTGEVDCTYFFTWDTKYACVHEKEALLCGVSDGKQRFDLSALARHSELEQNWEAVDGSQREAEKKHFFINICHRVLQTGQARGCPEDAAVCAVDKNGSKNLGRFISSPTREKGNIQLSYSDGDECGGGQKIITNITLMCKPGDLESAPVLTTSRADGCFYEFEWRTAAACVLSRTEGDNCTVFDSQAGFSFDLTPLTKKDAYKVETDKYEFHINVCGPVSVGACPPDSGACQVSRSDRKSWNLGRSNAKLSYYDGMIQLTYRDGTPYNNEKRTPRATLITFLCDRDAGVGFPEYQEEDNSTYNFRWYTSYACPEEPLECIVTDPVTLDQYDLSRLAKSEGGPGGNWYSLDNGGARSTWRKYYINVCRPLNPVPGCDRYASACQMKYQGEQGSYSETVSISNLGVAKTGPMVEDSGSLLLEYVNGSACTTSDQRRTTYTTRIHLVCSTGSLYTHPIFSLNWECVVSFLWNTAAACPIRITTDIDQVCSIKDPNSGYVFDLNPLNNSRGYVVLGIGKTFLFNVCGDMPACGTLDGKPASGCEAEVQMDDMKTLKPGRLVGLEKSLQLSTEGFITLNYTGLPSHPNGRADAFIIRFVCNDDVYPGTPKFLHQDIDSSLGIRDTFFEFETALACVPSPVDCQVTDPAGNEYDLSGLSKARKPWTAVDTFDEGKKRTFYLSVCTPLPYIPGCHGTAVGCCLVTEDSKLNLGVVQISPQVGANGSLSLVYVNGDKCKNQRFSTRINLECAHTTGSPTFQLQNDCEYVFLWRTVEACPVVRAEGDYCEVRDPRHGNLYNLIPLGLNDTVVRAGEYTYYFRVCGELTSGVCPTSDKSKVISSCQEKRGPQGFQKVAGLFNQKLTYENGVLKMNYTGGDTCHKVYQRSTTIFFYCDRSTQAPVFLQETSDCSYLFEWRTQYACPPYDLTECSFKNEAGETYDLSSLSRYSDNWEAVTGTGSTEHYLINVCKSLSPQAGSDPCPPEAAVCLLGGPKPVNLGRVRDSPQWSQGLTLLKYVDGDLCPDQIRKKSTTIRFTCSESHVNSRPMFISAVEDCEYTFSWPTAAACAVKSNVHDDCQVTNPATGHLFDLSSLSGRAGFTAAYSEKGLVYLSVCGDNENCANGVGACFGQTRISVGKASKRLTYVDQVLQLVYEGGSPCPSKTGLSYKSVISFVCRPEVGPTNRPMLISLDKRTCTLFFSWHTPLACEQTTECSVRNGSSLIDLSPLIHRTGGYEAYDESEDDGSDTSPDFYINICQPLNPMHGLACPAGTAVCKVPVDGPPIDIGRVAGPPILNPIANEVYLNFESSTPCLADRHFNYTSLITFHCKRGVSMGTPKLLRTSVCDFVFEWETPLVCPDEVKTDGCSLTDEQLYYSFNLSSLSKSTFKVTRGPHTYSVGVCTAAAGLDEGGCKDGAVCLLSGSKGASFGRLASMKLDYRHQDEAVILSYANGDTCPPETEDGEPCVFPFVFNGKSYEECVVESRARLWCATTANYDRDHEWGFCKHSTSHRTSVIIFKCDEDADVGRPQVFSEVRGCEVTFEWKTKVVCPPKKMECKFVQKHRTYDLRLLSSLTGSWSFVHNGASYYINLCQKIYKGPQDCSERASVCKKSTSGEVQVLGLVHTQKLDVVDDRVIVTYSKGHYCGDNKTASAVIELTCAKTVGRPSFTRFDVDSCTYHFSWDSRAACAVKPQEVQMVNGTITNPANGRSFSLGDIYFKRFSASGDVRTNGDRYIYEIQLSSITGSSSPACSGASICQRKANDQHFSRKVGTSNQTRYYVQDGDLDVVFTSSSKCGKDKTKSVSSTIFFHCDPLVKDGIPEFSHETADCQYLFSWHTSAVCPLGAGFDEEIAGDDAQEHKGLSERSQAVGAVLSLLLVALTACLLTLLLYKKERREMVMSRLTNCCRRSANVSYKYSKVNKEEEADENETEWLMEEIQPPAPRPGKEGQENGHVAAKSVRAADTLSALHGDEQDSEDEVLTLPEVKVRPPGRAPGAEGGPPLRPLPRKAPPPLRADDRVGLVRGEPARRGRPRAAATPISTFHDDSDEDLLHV

For “human acid β-glucocerebrosidase (GBA), partially purified, before phosphorylation (from UniProt P04062 40-536) (enzyme)”, in assay [1], the percent of sample eluted prior to the start of the M6P gradient (not retained on the receptor column) is more than 99%.

For the substance “highly phosphorylated human acid β-glucocerebrosidase (HP-GBA), treated with GlcNAc-phosphotransferase and uncovering enzyme (from UniProt P04062 40-536)”, in assay [2], the percent of GBA activity eluted after the start of the M6P gradient (retained on the receptor column) was found to be 77% and the percent of the retained GBA activity eluted only after the addition of 5 mM M6P worked out at 35%.

(Values after patent US20030133924A1.)
